The data set concerns the molecule itself. Put plainly: SEC.

B1: Gloeobacter ligand-gated ion channel (natural protein)
chain: QDMVSPPPPIADEPLTVNTGIYLIECYSLDDKAETFKVNAFLSLSWKDRRLAFDPVRSGVRVKTYEPEAIWIPEIRFVNVENARDADVVDISVSPDGTVQYLERFSARVLSPLDFRRYPFDSQTLHIYLIVRSVDTRNIVLAVDLEKVGKNDDVFLTGWDIESFTAVVKPANFALEDRLESKLDYQLRISRQYFSYIPNIILPMLFILFISWTAFWSTSYEANVTLVVSTLIAHIAFNILVETNLPKTPYMTYTGAIIFMIYLFYFVAVIEVTVQHYLKVESQPARAASITRASRIAFPVVFLLANIILAFLFFGF
With B1, the “stoichiometry N” value stood at 5.
